From PMC7672554, “Selective Metal Ion Utilization Contributes to the Transformation of the Activity of Yeast Polymerase η from DNA Polymerization toward RNA Polymerization” (International Journal of Molecular Sciences, 2020)

Assays:
Assay in all cases: steady-state primer extension, Cy3-labelled RNA primer/DNA template, gel quantitation
Assay type in all cases: biochemical, Saccharomyces cerevisiae
[1] = substrate: Nc1ccn([C@@H]2O[C@H](COP(=O)(O)OP(=O)(O)OP(=O)(O)O)[C@@H](O)[C@H]2O)c(=O)n1; details: RNA primer, template G (correct pair), 5 mM Mn2+, 20 nM primer/template, 25 mM Tris/HCl pH 7.5, 30 °C
Excerpt: (§1) steady-state primer extension, Cy3-labelled RNA primer/DNA template, gel quantitation on Polη (yeast Polymerase η)

[2] = substrate: Nc1nc2c(ncn2[C@@H]2O[C@H](COP(=O)(O)OP(=O)(O)OP(=O)(O)O)[C@@H](O)[C@H]2O)c(=O)[nH]1; details: RNA primer, template C (correct pair), 5 mM Mn2+, 20 nM primer/template, 25 mM Tris/HCl pH 7.5, 30 °C
Excerpt: as §1

[3] = substrate: Nc1ncnc2c1ncn2[C@@H]1O[C@H](COP(=O)(O)OP(=O)(O)OP(=O)(O)O)[C@@H](O)[C@H]1O; details: RNA primer, template T (correct pair), 5 mM Mn2+, 20 nM primer/template, 25 mM Tris/HCl pH 7.5, 30 °C
Excerpt: as §1

[4] = substrate: O=c1ccn([C@@H]2O[C@H](COP(=O)(O)OP(=O)(O)OP(=O)(O)O)[C@@H](O)[C@H]2O)c(=O)[nH]1; details: RNA primer, template A (correct pair), 5 mM Mn2+, 20 nM primer/template, 25 mM Tris/HCl pH 7.5, 30 °C
Excerpt: as §1

B1: Polη (yeast Polymerase η) (Saccharomyces cerevisiae S288C) (protein)
chain: MSKFTWKELIQLGSPSKAYESSLACIAHIDMNAFFAQVEQMRCGLSKEDPVVCVQWNSIIAVSYAARKYGISRMDTIQEALKKCSNLIPIHTAVFKKGEDFWQYHDGCGSWVQDPAKQISVEDHKVSLEPYRRESRKALKIFKSACDLVERASIDEVFLDLGRICFNMLMFDNEYELTGDLKLKDALSNIREAFIGGNYDINSHLPLIPEKIKSLKFEGDVFNPEGRDLITDWDDVILALGSQVCKGIRDSIKDILGYTTSCGLSSTKNVCKLASNYKKPDAQTIVKNDCLLDFLDCGKFEITSFWTLGGVLGKELIDVLDLPHENSIKHIRETWPDNAGQLKEFLDAKVKQSDYDRSTSNIDPLKTADLAEKLFKLSRGRYGLPLSSRPVVKSMMSNKNLRGKSCNSIVDCISWLEVFCAELTSRIQDLEQEYNKIVIPRTVSISLKTKSYEVYRKSGPVAYKGINFQSHELLKVGIKFVTDLDIKGKNKSYYPLTKLSMTITNFDIIDLQKTVVDMFGNQVHTFKSSAGKEDEEKTTSSKADEKTPKLECCKYQVTFTDQKALQEHADYHLALKLSEGLNGAEESSKNLSFGEKRLLFSRKRPNSQHTATPQKKQVTSSKNILSFFTRKK
notes: overexpressed in yeast as N-terminal GST fusion, GST removed with PreScission protease; no truncation stated
[1]
  Km: 1.89 ± 0.42 µM
  kcat: 0.078 ± 0.00367 s⁻¹
  kcat/Km: 41300 M⁻¹ s⁻¹
[2]
  Km: 2.55 ± 0.63 µM
  kcat: 0.0845 ± 0.0045 s⁻¹
  kcat/Km: 33200 M⁻¹ s⁻¹
[3]
  Km: 2.51 ± 0.64 µM
  kcat: 0.0435 ± 0.00233 s⁻¹
  kcat/Km: 17300 M⁻¹ s⁻¹
[4]
  Km: 12.8 ± 2.25 µM
  kcat: 0.0585 ± 0.00317 s⁻¹
  kcat/Km: 4500 M⁻¹ s⁻¹
